For test [1], the target named is T1, JNK1-dc20 (JNK1 with the C-terminal 20 residues truncated) (human, UniProt P45983 1-427). As to the kind of experiment: ITC.
The target in test [2] is T1, JNK1-dc20 (JNK1 with the C-terminal 20 …). As to the kind of experiment: ITC; 2 mM EDTA. On the technique in general: In ITC the heat of successive injections is recorded.
For test [3] the target is unchanged. The test is described as follows: FP.
For test [4] the target is unchanged. The test is described as follows: FP; EDTA.

T1 sequence (P45983 other isoform, or with tags, fused parts or gaps): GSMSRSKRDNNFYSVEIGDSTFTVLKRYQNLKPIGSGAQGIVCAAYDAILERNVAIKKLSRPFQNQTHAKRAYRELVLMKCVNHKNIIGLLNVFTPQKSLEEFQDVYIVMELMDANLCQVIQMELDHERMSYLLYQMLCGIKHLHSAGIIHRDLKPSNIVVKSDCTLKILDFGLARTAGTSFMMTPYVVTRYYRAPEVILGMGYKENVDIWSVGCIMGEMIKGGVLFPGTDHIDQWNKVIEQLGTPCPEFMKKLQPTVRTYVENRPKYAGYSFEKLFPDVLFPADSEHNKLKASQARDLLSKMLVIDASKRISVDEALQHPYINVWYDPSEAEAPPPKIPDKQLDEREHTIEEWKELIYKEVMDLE

The term Kd denotes the concentration at which binding is half-saturated. Take MSDDKPFLCTAPGCGQRFTNEDHLAVHKHKHEMTLKFGPA (domain or fragment) [ATF2(19–58)-His6 (MBP removed, for ITC)]: the results for the Kd in test [1] and in test [2] were 5.1 µM and 48 µM, respectively.

For the molecule MSDDKPFLCTAPGCGQRFTNEDHLAVHKHKHEMTLKFGPA (domain or fragment) [ATF2(19–58) as used in the competitive fluorescence polarisation assay], in test [3], the Kd is 4.5 µM.

B1: MBP-c-Jun(1–78) (domain or fragment)
chain: MTAKMETTFYDDALNASFLPSESGPYGYSNPKILKQSMTLNLADPVGSLKPHLRAKNSDLLTSPDVGLLKLASPELER
With B1, the Kd was found to be 3.8 µM in test [3] and 4.9 µM in test [4].

B2: MBP-c-Jun(1–78) K35E (domain or fragment)
chain: MTAKMETTFYDDALNASFLPSESGPYGYSNPKILEQSMTLNLADPVGSLKPHLRAKNSDLLTSPDVGLLKLASPELER
In test [3], B2 displayed a Kd of 55 µM.

B3: MBP-ATF2(19–100) (domain or fragment)
chain: MSDDKPFLCTAPGCGQRFTNEDHLAVHKHKHEMTLKFGPARNDSVIVADQTPTPTRFLKNCEEVGLFNELASPFENEFKKAS
For the molecule B3, the Kd came to 3.5 µM in test [3] and 53 µM in test [4].

Values taken from paper PMC7666158 (2020).
